20 sequences from the DeepSol protein solubility set can be followed below.

A short description of the data set: soluble on expression in E. coli; label from the status in PepcDB or PDB records.
Consider “MVALFQHSPYWQADGYGHSHRLKCQHFKQHRQYNDKLEISSNLGPQFNALLNILLNIVHPTLSHDTRRSKGLKIEGLLQSRELGNSWTVTMCIWVLKALQSSAPNKPLDWLDPMPCFQNLLARGTP”, for which the “soluble on expression in E. coli” value is reported as “soluble”.

With “MVASCKSTSQPVSLSQKDSSPDFNRCRNDSEDTVNLTGSGDIYIDKESSQKALDDLLRKVTLDGGISLKDAKSSEILAAYERKIQMLQLELQMKNVPKPVVEIETTSQKIRDLAQECEALRDSNKQLTDHMTRGNLEINQLKVQLEEVKQKCDSIETSLGMCITEKAGLKTQLTESLQNAERNVHTAQNEISKLNTELAQSVTRIELFLAENRELKQEFEEKVVECEVLKEHIRQIDLELKNKQSDMERALLQISAAEQKAAKKELELIEAEKHLKLYESRLSDRERDLNAKNLEIDRLKLDLDAARRNLQKLEQMREAMLSLASSSSN”, the “soluble on expression in E. coli” value was “not soluble”.

For the sequence “MVASHSFEASILAYVLATELKRKGIEINPEHSALIALFHDAGETLLGDLPKWATSRINKRDAEVEAFDELGIGKELFLELKDLNTNEAKVAKLSDRLSTY”, the “soluble on expression in E. coli” value is “soluble”.

As to “MVDKIIFTVTPIFSIPPRGAAAVETWMYQVAQRTNFPNRIVCIKNPGYSNYTFVNDNCSIHRVGFSRIYKRLFQKWTRLDPLPYSQRILNIAHDFPITKESVIVVHNSMKLYTQIRKRAPQARVVIHMHNAFEPKLLEQNVKMIVPSLYLKKYYQSYLANADIEIVPNGIDLETYQSNFQPITRSELNISPEEKIIFYAGRIVPDKGILLLMQSFEKLAAAHKNLKLVVIGDYTEMSKSDKGAYQRNVREIAKRLKDRCIMLGSIPPEKMHCYYPLADLVVIPSQFQEPFCMVAIEAMGAGKPVLVSTRGGMTEFVKENTTGFHLKEPMTADSISSDILKTLANPELTAVAKQGQDFVFDHYSWDGVTQRFEEVIHNWFE”, the “soluble on expression in E. coli” value is “not soluble”.

With “MVDTMMNTNTDGVTAVPPIFPLPSTTPNRNNNNELAMLAQKQIVAGLLLQQPTIVQAAVNGTNSQKHLADIDYTNVIQTLQALGTTNLKAFSLLLDPQSQTSQLISEDTRPSASSSPSSTATAVSNSGQSNATSTSSSSTEPEYKPRNVREKVYADGYIMSFDKKSCCGTKEFWRCERKNDCNARMHSDINTREIVRKLHPHNHEKPSPEELAFYEQDFSTLHPNYCHPVKSINRSYMQRKLSRASHVSQALPIAPQQIKAEPMEVDTTNQTIQNFQQNNNLMLLASINAAATAAAAATSAGISPPVVGQKRVSTTVMPITLKSQRTTPKEEEDSSQLMSQEEFRITYELTKKLMEMMKPKTEIGVRWQGDEGSILLFLSHDNGAEENVFFPVVVMNRDEKSLITALEGFTGKRCEGKLALCYSQRVNVLVHEALISNWTHGKLFLVNTDAPALWRLTPVDAFGEPLNHV”, the “soluble on expression in E. coli” value is “not soluble”.

In the case of “MVESKATLEEYVQTQLLQNWIYNDGAYLSLAFDAMCEGNFDRLCELDWQLSATKVARESREGSFKLGVRLLKIFIRYETHTLLTAYQQAIAEKRVQGYFPIVFAMVAQAMGLSKADTLYAFYYNAAVGVITNGVKLIPLSQMDGQDILFDLRGSLVQAVELSLDPDEEWLGAATLANDIRAMQHEVLYTRLYMSLEHHHHHH”, the “soluble on expression in E. coli” value is listed as “not soluble”.

Regarding “MVFFNRNKIMNKDSTQTWGLKRDITPCFGARLVQEGHRLHFLADRAGFTGSFSEVQTLQLDEAFPHFVAHLELMLLSCELNPRYAHCVTLYRNGLTGEADTLGSHGYVYIAILNRHGFNRHLRVILEHHHHHH”, the “soluble on expression in E. coli” value is on record as “not soluble”.

For the sequence “MVFMQKRIIYGIDIARGSPRARELPRYALAILRDGEISHFSMLRRQKIFNMIQRDRPEIIAVDNIFELAADRNELLSLMERLPDGVKLVQVTGGLHPEPLVRIARKHGISLDPENPNDEAEACARLADLGVGHEVSLFEDITKIKVSRARSLGRGGWSQNRYRRKVHGAVLQRSREIENILKDLSREKGIRFEAVNVKGFGGYVRSEFTVYAKRGEVPVHSMASNDAQVSVRSVERDKIRYVPLKPRSQKRKFTIVGLDPGTTVGIAILSLDGDLLYLKSFRGIAPDEVVKIIAEYGKPAVIASDVTPMPGSVEKIRRSFNAVPASPGIEVSAEEKIALGKTFGYSNDHERDALTAALLTYRSYKNIFTRIEKKAPENSDLELIKLHVIRGESIESAIEKVRAASQAREKPAGARAAPEKPEEKAVDESFQRMRETVQRQGEQIQNLQEYVEELKQAMAAKDRKISKLESRLKGFKKEAYSEIRKSKEVQIRDSTIESLKKELSNKNKTVKELRRRSNKLRKIQKMEIRGEGTPVKVIAAFTKESIAETKEKYGLKAGDVVFLEKPSGGGAATAQILVEARVRAVIIPEDISHAAEETFFKGDVPVLRDIQLERADDFAMALEHHHHHH”, the “soluble on expression in E. coli” value is “not soluble”.

Turning to “MVFMYIGTVMVEKYNKPHLTFGDQAAQLQLRGLIINNPDDCIGALEKIGYYRLSAYWYPFRKKKPKASRTTPFNYRLDEFEPKHTFEEAVALYRFDESLRRLLLEALGVIEIQLRTKIAYFAGKQDRFIHLKRELLDPIACCRVPKNSTQDSYQIWLHKYHKQIKRAGREDFIRHYQARYGNDIPIWIATEILDFGGVSKLFDFLPKQLKNQIALSFGAKEGTVVAGWIRNFNYIRNVSAHHSRLWNRLVITRIQAPNRNVVDPSIFHLADVKNRKSP”, the “soluble on expression in E. coli” value is on record as “not soluble”.

With “MVFSKKPITKYITWAIVTSQIPLPVIADSDNEIQSWIAGTASSISPHLQEGTLEDYAKGKIKALPGQAANHLVNEGIKSAFPEIIFRGGVNLEDGAKYRSSEFDMFIPVQETTSSLLFGQLGFRDHDNSSFDGRTYVNVGMGYRQEVNGWLLGVNTFLDADIRYSHLRGGIGGEVYKDSLAFSGNYYFPLTGWKMSAAHELHDERPAYGFDLRTKGTLPDFPWFSGELTYEQYYGDKVDLLGNGTLSRNPRAAGAALVWNPVPLLEVRAGYRDAGNGGSQAEGGLRVNYSFGTPLHEQLDYRNVGAPSNTTNRRAFVDRNYDIVMAYREQASKIRITAMPVSGLSGTLVTLMATVDSRYPVEKVEWSGDAELLAGLQLQGSLGSGLILPQLPLTATDGQEYSLYLTVTDSRGTRVTSERIPVRVTQDETSFRSWINVINDDVQVEDGNFVINTPLPAGEEGKVIEWHYVRERSEEEWASLKPRHIKYQSDTPGLAFKALGGTERDGHWVERVLVTHIGDDARSLKLHIEASGPDDKHPVKGTVLLQAQSDSIAQKVTSVEVLFTPGTEEANGSVTAPVVGTEMRARTLCVNNTDCTDAFNYQWEISDEMKSWQSVPGATKATWLLPYSLNGESLQNKYIRVRIISDKGNAKGNTATSDAN”, the “soluble on expression in E. coli” value is reported as “not soluble”.

As for “MVGDGIAKFIPEGFDAQKIPSFAIEKEPREQGALPADWVLVPEFSLTDGKANASLTVPEGTSIYGGGEVTGSLLRNGKTIKLWNTDSGAYGVDKGTRLYQSHPWMMGVRKDGTAFGILFDTTWKAELSSTDEKIELKSEGIPFRVFIIDRESPQAVIRGLSELTGTMPMIPRWALGYQQCRFSYSPDSRVIEIADTFRLKRIPCDVIWMDIDYMDGYRIFTFNPKSFPNPKAVNRDLHIRGFHSAWMIDPGAKVDPNYFVYKSGTENDVWVKTADGKNFHGDAWPGAAAFPDFTSPKVNKWWRNLYKDFLAQGVDGVWNDVNEPQINDTPNKTMPEDNLHRGGGKLPAGTHLQYHNVYGFLMVKASREGILDARPEKRPFILTRSNFLGGQRYAATWTGDNGSCWDHLKMSVPMSLTLGLSGQPFSGADIGGFLFNADADLFGNWIGFGAFYPFARGHACAGTNNKEPWVFGQKVEDASRIALERRYILLPYFYTLLHEASTNGMPIMRPVFFSDPKDLSLRAEEEAFLVGDNLLIIPAFANQPALPKGIWKELSLVEGDQNDKYQAKMKIRGGAIIPTGKIIQNTTENSLDPLTLLVCLDEQGKASGNMYWDAGDGWSYKKGDYSLLQFVAERNGDKVTVKLTKKTGKYNTENKDMAVIKIITDQGIRQASGNLVEGIEIRL”, the “soluble on expression in E. coli” value was “not soluble”.

With “MVHHDGFQTVKGTIDWEHPMYKLYEKAKRNGKWNPADIDFSQDKEDFARLTSEEKIAALPLVAGFSAGEEAVTLDILPMAHALARQGRLEDVMFLTTFMHDEAKHVEMFSRWQQEVGIGAMDLSVFHNDHYKRIFYEALPEAMNRLYTDDSPEAVIRAATVYNMIVEGTLAESGYYTFRQIYKKAGLFPGLLQGIDYLNMDEGRHIQFGLYTIQRLVNENERYYDLFIQYMDELWPHVVGYVAYLTELGKRQQQLARTYALEIDYDMLNNYVVKQFNIRKKQISRAKRVDSIEELEKTVAES”, the “soluble on expression in E. coli” value is “not soluble”.

“MVINGLDILLQNPEVLRHRRVGLIANQTSVSMQLEYSWMLLKRAGVELTRIFSPEHGLFAIEQDQIAVGHQPDIGCEIVSLYGDSEHSLAPARELLDGLDLVLFDIQDVGSRYYTYVNTLALFMKAAEGLDIEIMVLDRPNPLGGSLIEGPQLDPAFHSFVGVMPLPVRHGLTAGEIAHFYRNYKKLDLNLNVIPMQGWSRQMLFPETCLPWVPPSPNMPSFEAAEVYPGMCLFEGLNVSEGRGTTTPFLLSGATFVDPEALAERLASMPLEGVVFRPTWFRPTFHKYAGEAIGGLYLHVTDHARFRPFATGVAMTCALYELYPEQLAFLDGVYEFRDDIPAFDLLAGSSTIRSMILDNRDTTAIIASWEKDEAEFAAIKPNFHLYNN”: the “soluble on expression in E. coli” value is listed as “not soluble”.

Turning to “MVINSPEKEDTALILYTSGTTGKPKGVMLTFDNILANVDSLDVYKMYEETDVTIALLPLHHILPLLGTGVMPLLYSATIVFLEDISSVALIDAMKKYKGTMMIGVPKLWEVMHKKIMDTINSKAITRFIFKLAKKVNSLSFSKLIFKKVSEGFGGHIKFFVSGGSKLNPQITKDFYTLGIKICEGYGMTETSPIISYTPKNNIVFDSAGKLEHHHHHH”, the “soluble on expression in E. coli” value is reported as “not soluble”.

Consider “MVIQLQKGQKIDLGKTSPGLTKAVIGLGWDIKSYDGGSDFDLDASAFLLDANGKCTKETDFIFYNNLQSPCGSVLHTGDNRTGEGEGEGDDEQLVVDLKKVPADVHRIAITVTIYDAEGRSQNFGQVGNAFVRLANEETNEEVLRFDLGEDFSIETAVVFCELYRHNGQWKFNAVGSGFQGGLGALVRAYGLDA”, for which the “soluble on expression in E. coli” value was “not soluble”.

Turning to “MVKFIHCADLHLDSPFKSKSYLSPNIFEDVQKSAYESFKNIVDLALKQEVDFIIIAGDLFDSENRTLRAEVFLNEQFERLRKEQIFVYICHGNHDPLTSKITSQWPNNVSVFSNQVETYQAITKSGETIYIHGFSYQNDASYENKIDAYPSSQGQKGIHIGVLHGTYSKSSVKDRYTEFRLEDLNQRLYHYWALGHIHQREQLSDMPVINYPGNIQGRHFNELGEKGCLLVEGDHLKLTTQFYPTQFIKFEEATIETDHTSKQGLYDVIQSFKDKVRTEGKSFYRLNVRINSEDIIAPQDLIQLKEMITEFEENENQFVFIEDLNLQYVQNDEMPIVKEFSPELLDDASLFDSAMTDLYLNPRASKFLDDYNEFDKVELVNHAERLLKDEMRGEQNDN”, the “soluble on expression in E. coli” value is listed as “not soluble”.

As for “MVKINITAETNGFVLLEHGEVFIKNNNDVSLKLIPNEQEVPLIINIEFANKGGRIASVDRNIVNDKLVFTCNNFQSEPGNWGGIIEPMLIAEMDDCNLYLSFLVWNIDTTNYNRLLNYSFWLKKK”, the “soluble on expression in E. coli” value is “not soluble”.

As to “MVKTGIEDVCGHWGHNFWRDKFKKFDDKYLRNVLIRENQPKSSIVSLYKKLEIKHAIEMAETGMISTVPTFASLNDCREEKIRKVTSSETDEIRELLSRNLYQIRQRTLSYNRHSLTADTSERQAKEILIRRRHSLRESIRKDSSLNREHRASTSTSRYLSLPKNTKLPEKLQKRRTISIADGNSSSSDAHAGTTVLNLLEHHHHHH”, the “soluble on expression in E. coli” value is listed as “not soluble”.

“MVKTRLTAEEFFALPLERGELVDGEVREERPPKPEHGRIALRIGYHLMRWLEETGRGVAGVEGGFVLRRDPDRVRSPDVWFLSHERLKEVTREGFYEGAPDLAVEVVSPGEEAEGVLAKVLDYLEAGAKAVWLVYPELKAVEVYGRGGEGRLLRAHEVLEGGEALPGFRLPLEALFGQ”: the “soluble on expression in E. coli” value is “soluble”.

For “MVLFDQATYEKLLIEAPKFKLITPSILSDRMRVYICIYLLISYSRNDSYIIWQ”, the “soluble on expression in E. coli” value is “not soluble”.
